The results in this text go back to patent publication US8722052B2, “Vaccinia virus protein A46 peptide and use thereof” (priority 2008, dated 2014).

The test deals with T1, TLR2 (Homo sapiens, UniProt O60603).
T1 construct: endogenous in cells; host or cells: PMA-differentiated THP-1
Put plainly: Pam3CysK4-induced TNFα in THP-1 cells, ELISA. The following applies: peptide 1, 5 or 10 μM. In kind it is cell-based. As for the experimental part: FIGS. 9A and B are bar charts showing the effect of A464 on Pam3CysK4-induced TNFα in human THP-1 cells. Cells were seeded in 96 well plates (3×10^5 cells/ml) and differentiated with 200 nM PMA for 24 hours before treatment. A464 (SEQ ID NO. 20) was added to the cells at a concentration of 1, 5 or 10 μM 1 hour before stimulating with either 100 ng/ml (A) or 10 ng/ml Pam3CysK4 (B). Supernatants were collected 24 hours after stimulation and assayed for TNFα by ELISA. Cells from (B) were also assayed for viability by the MTT assay (C). No peptides were added to the control wells (black bars). Data is representative of at least three experiments each performed in triplicate and is expressed as mean±s.d;
Cytokine and chemokine production from cells or mouse serum was measured by ELISA using Duoset kits from R&D systems, according to the manufacturer's instructions.
In order to determine whether A464 (SEQ ID No. 20) was specific for TLR4, other TLR pathways were next assayed for sensitivity to A464 (SEQ ID No. 20). A scrambled version of A464 (SEQ ID No. 20) peptide was designed to use as a further control peptide, and this had the sequence: […] (ConA464, SEQ ID No. 32). The A464R (SEQ ID No. 20) and ConA464 (SEQ ID No. 32) peptides were assayed for inhibition of TLR2 signalling in THP-1 cells. […]

T1 sequence (O60603 21-784): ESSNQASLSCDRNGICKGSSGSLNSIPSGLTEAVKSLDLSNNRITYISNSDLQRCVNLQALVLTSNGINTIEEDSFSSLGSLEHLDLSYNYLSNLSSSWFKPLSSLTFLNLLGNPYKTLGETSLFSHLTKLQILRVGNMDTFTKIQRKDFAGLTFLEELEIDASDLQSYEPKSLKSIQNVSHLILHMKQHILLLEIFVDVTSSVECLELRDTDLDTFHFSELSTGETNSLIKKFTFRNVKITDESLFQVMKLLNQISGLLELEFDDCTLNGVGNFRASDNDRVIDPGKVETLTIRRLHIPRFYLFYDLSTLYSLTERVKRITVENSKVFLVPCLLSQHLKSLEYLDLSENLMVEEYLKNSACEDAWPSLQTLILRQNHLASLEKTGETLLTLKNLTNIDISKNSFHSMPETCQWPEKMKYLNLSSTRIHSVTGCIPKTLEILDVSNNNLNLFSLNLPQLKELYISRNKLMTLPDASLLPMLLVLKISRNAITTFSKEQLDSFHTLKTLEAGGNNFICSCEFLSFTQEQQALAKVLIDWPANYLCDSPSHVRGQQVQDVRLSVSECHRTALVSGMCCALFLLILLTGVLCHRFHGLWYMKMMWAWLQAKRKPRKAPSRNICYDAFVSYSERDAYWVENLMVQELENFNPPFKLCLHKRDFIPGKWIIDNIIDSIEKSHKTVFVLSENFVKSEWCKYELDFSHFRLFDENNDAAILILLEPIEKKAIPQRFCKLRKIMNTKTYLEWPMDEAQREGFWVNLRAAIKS
T1 sequence (Q15399 25-786 partner): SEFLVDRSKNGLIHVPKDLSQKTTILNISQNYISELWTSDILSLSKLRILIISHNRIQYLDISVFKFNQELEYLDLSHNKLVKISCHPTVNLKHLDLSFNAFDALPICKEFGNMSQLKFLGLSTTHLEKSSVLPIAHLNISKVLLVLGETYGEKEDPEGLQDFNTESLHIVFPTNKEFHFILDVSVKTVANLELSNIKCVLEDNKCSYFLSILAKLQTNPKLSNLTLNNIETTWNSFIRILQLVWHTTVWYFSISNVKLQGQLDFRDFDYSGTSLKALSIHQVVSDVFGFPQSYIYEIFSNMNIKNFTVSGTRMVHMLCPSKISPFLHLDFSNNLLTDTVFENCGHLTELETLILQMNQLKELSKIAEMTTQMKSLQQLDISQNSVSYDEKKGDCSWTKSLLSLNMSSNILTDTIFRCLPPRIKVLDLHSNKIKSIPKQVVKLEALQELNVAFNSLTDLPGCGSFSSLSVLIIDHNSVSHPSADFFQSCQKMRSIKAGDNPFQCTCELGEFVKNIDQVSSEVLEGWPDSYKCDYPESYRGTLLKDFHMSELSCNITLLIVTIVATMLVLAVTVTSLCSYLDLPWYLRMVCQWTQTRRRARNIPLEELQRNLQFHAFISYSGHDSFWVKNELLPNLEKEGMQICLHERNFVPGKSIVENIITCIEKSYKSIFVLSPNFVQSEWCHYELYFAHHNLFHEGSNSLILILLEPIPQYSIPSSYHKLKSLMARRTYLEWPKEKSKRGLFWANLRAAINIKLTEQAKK

On to KYSFKLILAEYRRRRRRRRR [Peptide A464], for which the “inhibition of Pam3CysK4-induced hTNFα secretion” value was “slightly heightened” (10 ng/ml Pam3CysK4, 24 h) and “only very minor inhibitory effects” (100 ng/ml Pam3CysK4, 24 h).
